Primed or numbered codes have the meaning given here. Where no end group is shown, it is not given here. Side-chain parts run from the residue outwards. [ ]: non-standard residue; d: D form. The star is where a group is joined. PEG(11) = undeca(ethylene glycol) spacer (11 ethylene glycol units) between biotin and maleimide; Biotin = O=C1N[C@H]2[C@H](CS[C@H]2CCCCC(=O)*)N1; PEG11′ = not defined here; Abu = CC[C@H](N)C(=O)O
T1: peptide 6 (human iRhom2 loop 1, AA508-548), biotinylated (human, not fully specified; X (position 9) = aminobutyrate in place of the internal cysteine; biotin-PEG(11)-maleimide on the natural terminal cysteine)
T1 construct: also called immunization peptide 6
T1 peptide: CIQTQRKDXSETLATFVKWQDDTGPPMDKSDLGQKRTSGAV

T2: peptide 8 (human iRhom2 C-terminus, AA824-839), biotinylated (human)
T2 construct: also called immunization peptide 8
T2 peptide: YIYPINWPWIEHLT[Abu]FC([maleimide-PEG11′-Biotin])

T3: peptide 5 (human iRhom2 loop 1, AA474-498), biotinylated (human, X (position 4) = aminobutyrate in place of the internal cysteine; biotin-PEG(11)-maleimide on the added N-terminal cysteine)
T3 construct: also called immunization peptide 5
T3 peptide: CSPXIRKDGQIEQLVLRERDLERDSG

T4: peptide 9 (human iRhom2 C-terminus, AA819-839), biotinylated (human, X (position 20) = aminobutyrate in place of the internal cysteine; biotin-PEG(11)-maleimide on the added C-terminal cysteine)
T4 construct: also called immunization peptide 9
T4 peptide: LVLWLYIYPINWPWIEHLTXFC

T5: peptide 10 (human iRhom2 C-terminus, AA824-856), biotinylated (human, oxidized to the cyclic disulfide; biotin-PEG(11)-maleimide on the added C-terminal cysteine)
T5 construct: also called immunization peptide 10
T5 peptide: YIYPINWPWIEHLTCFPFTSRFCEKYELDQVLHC

T6: peptide 2b (human iRhom1 juxtamembrane domain of TMD1, AA428-449), biotinylated (human, biotin-PEG(11)-maleimide on the added C-terminal cysteine)
T6 peptide: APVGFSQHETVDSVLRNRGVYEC

T7: peptide 7 (human iRhom2 loop 1, AA578-600), biotinylated (human, X (position 16) = aminobutyrate in place of the internal cysteine; biotin-PEG(11)-maleimide on the natural terminal cysteine)
T7 construct: also called immunization peptide 7
T7 peptide: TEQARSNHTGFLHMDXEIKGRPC

T8: peptide 4b (human iRhom1 juxtamembrane domain of TMD1, AA428-461), biotinylated (human, biotin-PEG(11)-maleimide on the added C-terminal cysteine)
T8 peptide: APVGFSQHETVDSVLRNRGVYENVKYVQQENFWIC

T9: peptide 11 (human iRhom2 C-terminus, AA819-856), biotinylated (human, oxidized to the cyclic disulfide; biotin-PEG(11)-maleimide on the added C-terminal cysteine)
T9 construct: also called immunization peptide 11
T9 peptide: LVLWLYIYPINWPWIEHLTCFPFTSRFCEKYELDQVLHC

T10: peptide 1b (human iRhom1 juxtamembrane domain of TMD1, AA433-449), biotinylated (human)
T10 peptide: SQHETVDSVLRNRGVYEC([maleimide-PEG(11)-Biotin])

T11: peptide 3b (human iRhom1 juxtamembrane domain of TMD1, AA433-461), biotinylated (human, biotin-PEG(11)-maleimide on the added C-terminal cysteine)
T11 peptide: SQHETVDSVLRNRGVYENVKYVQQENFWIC

T12: human iRhom2 (inactive rhomboid protein 2, isoform 1, NP_078875.4) (human, UniProt Q6PJF5 1-856)
T12 sequence: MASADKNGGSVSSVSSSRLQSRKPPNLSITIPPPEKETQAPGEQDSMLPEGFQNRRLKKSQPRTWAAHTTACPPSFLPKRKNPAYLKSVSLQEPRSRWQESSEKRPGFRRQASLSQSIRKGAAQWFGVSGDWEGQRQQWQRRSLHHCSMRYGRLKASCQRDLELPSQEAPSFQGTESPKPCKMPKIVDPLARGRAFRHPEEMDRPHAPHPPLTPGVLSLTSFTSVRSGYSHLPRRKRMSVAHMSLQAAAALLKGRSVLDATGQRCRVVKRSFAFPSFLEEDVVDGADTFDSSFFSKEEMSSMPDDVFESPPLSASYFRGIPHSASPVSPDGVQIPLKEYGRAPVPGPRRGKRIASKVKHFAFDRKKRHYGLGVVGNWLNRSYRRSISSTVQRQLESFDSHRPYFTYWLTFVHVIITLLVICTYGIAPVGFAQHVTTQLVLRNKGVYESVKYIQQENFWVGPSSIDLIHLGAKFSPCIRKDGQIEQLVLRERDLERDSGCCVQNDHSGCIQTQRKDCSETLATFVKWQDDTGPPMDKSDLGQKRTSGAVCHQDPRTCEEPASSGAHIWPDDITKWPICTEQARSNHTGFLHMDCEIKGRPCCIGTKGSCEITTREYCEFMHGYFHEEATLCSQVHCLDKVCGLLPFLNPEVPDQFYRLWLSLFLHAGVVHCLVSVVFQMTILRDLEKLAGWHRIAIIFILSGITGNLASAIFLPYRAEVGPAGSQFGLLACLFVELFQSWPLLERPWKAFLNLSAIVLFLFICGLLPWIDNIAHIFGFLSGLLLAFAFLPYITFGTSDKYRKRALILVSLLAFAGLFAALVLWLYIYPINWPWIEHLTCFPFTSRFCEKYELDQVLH


Columns and labels:
[1] = system: LPS-induced release of endogenous TNFα from human THP-1 macrophage cells; assay: ELISA-based TNFα release assay with purified antibody (Example 11); format: cell-based; conditions: Homo sapiens; positive control at 10 μM final; THP-1 cells; LPS 50 ng/ml, 2 hours
Description: In the following study, ELISA-based TNFα release assays were performed to verify the inhibitory effects of the purified antibody 4H8-E3 of the invention on LPS-induced release of endogenous TNFα from human THP-1 macrophage cells.
In brief, on day 1, Nunc black MaxiSorp® 96-well plates (Thermo Fisher Scientific, USA) were coated overnight with 100 μl per well of mouse anti-human TNFα capture antibody (provided as part of the DuoSet ELISA kit) at 4 μg/ml TBS at 4° C. On day 2, the capture antibody solution was removed and MaxiSorp® plates were blocked with 300 μl per well of TBS, 1% BSA at room temperature for 3 hours. […] Using an infinite M1000 PRO (Tecan Group, Switzerland) microplate reader, the fluorescence of each well was collected at an excitation wavelength of 435 nm and an emission wavelength of 555 nm.

[2] = biological target: T1, peptide 6 (human iRhom2 loop 1, …); assay: peptide binding ELISA, biotinylated peptide coated
[3] = biological target: T2, peptide 8 (human iRhom2 C-terminus, …); assay: peptide binding ELISA, biotinylated peptide coated
[4] = biological target: T3, peptide 5 (human iRhom2 loop 1, …); assay: peptide binding ELISA, biotinylated peptide coated
[5] = biological target: T4, peptide 9 (human iRhom2 C-terminus, …); assay: peptide binding ELISA, biotinylated peptide coated
[6] = biological target: T5, peptide 10 (human iRhom2 C-terminus, …); assay: peptide binding ELISA, biotinylated peptide coated
[7] = biological target: T6, peptide 2b (human iRhom1 juxtamembrane …); assay: peptide binding ELISA, biotinylated peptide coated
[8] = biological target: T7, peptide 7 (human iRhom2 loop 1, …); assay: peptide binding ELISA, biotinylated peptide coated
[9] = biological target: T8, peptide 4b (human iRhom1 juxtamembrane …); assay: peptide binding ELISA, biotinylated peptide coated
[10] = biological target: T9, peptide 11 (human iRhom2 C-terminus, …); assay: peptide binding ELISA, biotinylated peptide coated
[11] = biological target: T10, peptide 1b (human iRhom1 juxtamembrane …); assay: peptide binding ELISA, biotinylated peptide coated
[12] = biological target: T11, peptide 3b (human iRhom1 juxtamembrane …); assay: peptide binding ELISA, biotinylated peptide coated
[13] = biological target: T12, human iRhom2 (inactive rhomboid protein …); assay: cell-based or functional assay

Molecule | inhibition at 10 µM [1] | binding result [2] | binding result [3] | binding result [4] | binding result [5] | binding result [6] | binding result [7] | binding result [8] | binding result [9] | binding result [10] | binding result [11] | binding result [12] | IC50 on LPS-induced release of endogenous TNFα from THP-1 cells [13]
CNC(=O)[C@H](Cc1ccccc1)NC(=O)[C@H](CC(C)C)[C@H](CSc1cccs1)C(=O)NO [Batimastat, reference compound] | 92.5% | – | – | – | – | – | – | – | – | – | – | – | –
antibody 4H8-E3 of the invention (antibody, V domains shown, Mouse monoclonal antibody purified from the supernatant of hybridoma sub-clone 4H8-E3; also called anti JMD1 antibody 4H8-E3; purified antibody 4H8-E3) VH: EVQLQQSGPELVKPGASVKISCKASGYTFTDYYMNWVKQSHGKSLEWIGDINPNNGGTSYNQKFKGKATLTVDKSSNTAYMEFRSLTSEDSAVYYCARRGYYGVDYWGQGTTLTVSS VL: NIVMTQSPKSMSMSVGERVTLNCKASENVGTYVSWYQQKPEQSPKLLIFGASNRYTGVPDRFIGSGFATDFTLTISSVQAEDLADYHCGQSYSYPYTFGGGTKLEIK | – | no binding (tested: 3 µg/ml) | no binding (tested: 3 µg/ml) | no binding (tested: 3 µg/ml) | no binding (tested: 3 µg/ml) | no binding (tested: 3 µg/ml) | no binding (tested: 3 µg/ml) | no binding (tested: 3 µg/ml) | no binding (tested: 3 µg/ml) | no binding (tested: 3 µg/ml) | no binding (tested: 3 µg/ml) | no binding (tested: 3 µg/ml) | 6.48 nM
